Data as given in article PMC7330524, “Genome-Wide Analysis of Serine Carboxypeptidase-Like Acyltransferase Gene Family for Evolution and Characterization of Enzymes Involved in the Biosynthesis of Galloylated Catechins in the Tea Plant (Camellia sinensis)” (Frontiers in Plant Science, 2020).

How the values were obtained:
[1] = substrate: Oc1cc(O)c2c(c1)O[C@H](c1cc(O)c(O)c(O)c1)[C@H](O)C2; assay: purified protein; settings: 0.4 mM PGG as donor, potassium phosphate pH 6.0, 30 °C
[2] = substrate: O=C(OC[C@H]1O[C@@H](OC(=O)c2cc(O)c(O)c(O)c2)[C@H](OC(=O)c2cc(O)c(O)c(O)c2)[C@@H](OC(=O)c2cc(O)c(O)c(O)c2)[C@@H]1OC(=O)c1cc(O)c(O)c(O)c1)c1cc(O)c(O)c(O)c1; assay: HPLC galloyltransferase assay, Lineweaver-Burk; type: biochemical, Camellia sinensis; settings: 1.0 mM EGC as acceptor, potassium phosphate pH 6.0, 30 °C
[3] = substrate: Oc1cc(O)c2c(c1)O[C@H](c1ccc(O)c(O)c1)[C@H](O)C2; assay: HPLC galloyltransferase assay, Lineweaver-Burk; type: biochemical, Camellia sinensis; settings: 0.4 mM PGG as donor, potassium phosphate pH 6.0, 30 °C

| Protein | Km [1] | Vmax [1] | kcat [1] | kcat/Km [1] | Km [2] | Vmax [2] | kcat [2] | kcat/Km [2] | Km [3] | Vmax [3] | kcat [3] | kcat/Km [3] |
| --- | --- | --- | --- | --- | --- | --- | --- | --- | --- | --- | --- | --- |
| CsSCPL13-IA (Camellia sinensis var. sinensis) (protein, full length, His-tag (pDEST17); E. coli; nickel resin, partially purified; 498 residues, 56 kD) MVQVEAIAASQKQLLQKPSCAWIRWVQNHLLLQLLLAQPVLGGQIVKYLPGFDGELPFKLETGQLKSDDGFVVDFDRYISVDDSELFYYFIESEGNPQEDPLFLWLTGGPGCTSFSGLLYEVGPMEYDIDNYTGGLPKLKYYPYARTKTASMIFLDAPVGTGFSYARTPGGWPTSDTKSAEQSYQFLRKWLVEHPQFLSVQLFVGGDSYAGLAVPLITKKIIDGNKEKAEPYMNIKGYLVGCPGTDSVIDGNSRVDFAHRMALISDEIYENAKRSCNENYINVDPANTACITAMGAVQKCLEDLSDKDILKPKCDLSSQDHPEGPDRRFLKEGSSEFLLSPSTFPKSWCTTLKLTHNSIWANDDGVQEALHVRKGTVPRWERCNNSLSYTKDVSSVIAVHKELSRSSLEVLVESGDHDISVPYMGTLKWIKSLNLTLVDDWRPWFVDNQVAGYTMKYSEEHGYHLTFATIKGAGHPAPEYYRRECYCLFDRWINYNPV | 49.73 ± 8.36 µM | 20.4 µmol/min/mg | 340 s⁻¹ | 6.84e+06 M⁻¹ s⁻¹ | 10.43 ± 1.25 µM | 3.67 µmol/min/mg | 61 ± 8.82 s⁻¹ | 5.85e+06 ± 840000 M⁻¹ s⁻¹ | 160.41 ± 21.2 µM | 37 µmol/min/mg | 617 ± 62.5 s⁻¹ | 3.85e+06 ± 420000 M⁻¹ s⁻¹ |
| CsSCPL14-IA (Camellia sinensis var. sinensis) (protein, N-terminal 50 residues (transmembrane region) deleted, Met inserted; His-tag (pDEST17); E. coli; nickel resin, partially purified; full protein 413 residues, 46 kD) SVDDSELFYYFIESEGNPQEDPLFLWLTGGPGCTSFSGLLYEVGPMEYDIDNYTGGLPKLKYYPYARTKTASMIFLDAPVGTGFSYARTPGGWPTSDTKSAEQSYQFLRKWLVEHPQFLSVQLFVGGDSYAGLTVPLITKKIIDGNKEKAKPYMNIKGYLVGCPGTDSVIDGNSRVDFAHRMALISDEIYENAKRSCNENYINVDPANTACITAMGAIQKCLKDLSDKDILKPKCDLSSQDHPEGPDRRFLKEGSSEFLLSPSTFPKPWCTTLKLTHNSIWANDDGVQEALHVRKGTVPRWERCNNSLSYTQDVLSVIAVHKELSRSSLEVLVERFFIFFLLLPAANRPSLPSRPPDNLTHHS | 103.38 ± 15.63 µM | 62.5 µmol/min/mg | 1040 s⁻¹ | 1.01e+07 M⁻¹ s⁻¹ | 20.81 ± 3.51 µM | 10.6 µmol/min/mg | 177 ± 22.8 s⁻¹ | 8.52e+06 ± 1.38e+06 M⁻¹ s⁻¹ | 64.28 ± 0.81 µM | 20 µmol/min/mg | 333 ± 35.2 s⁻¹ | 5.19e+06 ± 480000 M⁻¹ s⁻¹ |
| CsSCPL11-IA (Camellia sinensis var. sinensis) (protein, N-terminal 50 residues (transmembrane region) deleted, Met inserted; His-tag (pDEST17); E. coli; nickel resin, partially purified; full protein 450 residues, 51 kD) ELPFKLETGYALIYIRVNESELFYYFIESQGNPQEDPIFLWLPGGPGCSSFHELVYGFGMVKILIVKTASIIFLDAPVGTGFSYSRTADGWPTSDSKSAEQSYQFLREWFDEHPQYLAVQLFVGKGNKDGVKPFMNLKGYLLGSPRTDSVIDENSKVVFAHRMALISDEIYENAKTGCNDTYVSIDPANTACIVALGNIKTCIKDLFRNDILEPKCVFATPDPGEEPAARRSLEEGPSDFLLSPPMIPNLWCRNFNYVLSYIWSNDDTVQEVLHVRKGSVLNWERCNKSLSYTKDILTVVPVHEELKELGLEVLVETGDRDMVVPFVGTVKWIKSLNLTVVNDWRPWFVDGQVAGYTIKYSEHGYRLTYATVKGAGHTAPEYYRMECYYMFDRWIHYYPI | 40.67 ± 5.56 µM | 13.2 µmol/min/mg | 219 s⁻¹ | 5.39e+06 M⁻¹ s⁻¹ | 13.34 ± 1.78 µM | 4.05 µmol/min/mg | 67.5 ± 7.34 s⁻¹ | 5.06e+06 ± 970000 M⁻¹ s⁻¹ | 85.39 ± 10.62 µM | 16.1 µmol/min/mg | 269 ± 22.8 s⁻¹ | 3.14e+06 ± 640000 M⁻¹ s⁻¹ |
